Changes are numbered by the printed parent chain.
T1: AXL on MDA-MB-231 cells (UniProt P30530 26-894, limits assumed)
T1 sequence (looked up): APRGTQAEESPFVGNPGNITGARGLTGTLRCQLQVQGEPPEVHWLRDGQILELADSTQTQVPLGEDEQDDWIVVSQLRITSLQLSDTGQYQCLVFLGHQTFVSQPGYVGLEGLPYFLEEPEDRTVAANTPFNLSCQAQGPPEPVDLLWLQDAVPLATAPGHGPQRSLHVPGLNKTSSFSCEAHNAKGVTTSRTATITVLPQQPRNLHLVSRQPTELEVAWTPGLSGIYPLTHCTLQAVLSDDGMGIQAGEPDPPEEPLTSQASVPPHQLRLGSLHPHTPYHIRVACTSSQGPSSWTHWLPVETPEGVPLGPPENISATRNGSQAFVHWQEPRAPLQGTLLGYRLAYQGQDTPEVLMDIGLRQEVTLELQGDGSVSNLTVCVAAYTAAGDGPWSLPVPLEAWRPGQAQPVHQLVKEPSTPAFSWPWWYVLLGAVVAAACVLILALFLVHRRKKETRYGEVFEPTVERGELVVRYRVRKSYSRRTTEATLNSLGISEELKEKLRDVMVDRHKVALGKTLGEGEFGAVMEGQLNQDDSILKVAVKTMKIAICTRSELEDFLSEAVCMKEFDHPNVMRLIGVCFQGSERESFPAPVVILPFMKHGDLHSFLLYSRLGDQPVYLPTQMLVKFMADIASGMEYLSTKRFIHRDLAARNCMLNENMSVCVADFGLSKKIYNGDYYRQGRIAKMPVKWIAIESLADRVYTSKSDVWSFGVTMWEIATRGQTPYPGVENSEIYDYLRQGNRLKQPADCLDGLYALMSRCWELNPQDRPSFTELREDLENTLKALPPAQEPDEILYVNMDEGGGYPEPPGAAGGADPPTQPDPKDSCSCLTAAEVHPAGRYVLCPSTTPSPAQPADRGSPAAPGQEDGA

T2: Cynomolgus monkey AXL (Macaca fascicularis, UniProt A0A2K5WXE0)
T2 construct: form not described
T2 sequence (antigen): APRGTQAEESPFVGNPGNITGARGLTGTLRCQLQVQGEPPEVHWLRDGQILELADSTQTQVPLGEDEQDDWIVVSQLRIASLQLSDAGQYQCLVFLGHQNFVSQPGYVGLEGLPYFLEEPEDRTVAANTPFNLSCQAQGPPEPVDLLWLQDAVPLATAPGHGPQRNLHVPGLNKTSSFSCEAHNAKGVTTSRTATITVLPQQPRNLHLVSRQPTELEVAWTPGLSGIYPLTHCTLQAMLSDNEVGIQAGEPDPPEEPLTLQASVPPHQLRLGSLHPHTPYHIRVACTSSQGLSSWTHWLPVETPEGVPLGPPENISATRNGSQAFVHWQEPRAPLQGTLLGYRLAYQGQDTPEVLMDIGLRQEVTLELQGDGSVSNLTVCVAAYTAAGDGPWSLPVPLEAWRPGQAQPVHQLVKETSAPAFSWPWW

T3: Human AXL-Strep-His (produced by Evitria AG in transiently transfected CHO cells) (human, UniProt P30530 26-451, limits assumed)
T3 construct: also called Axl-Strep-His antigen; human AxI-Strep-His; not shown: Strep and His tags
T3 sequence: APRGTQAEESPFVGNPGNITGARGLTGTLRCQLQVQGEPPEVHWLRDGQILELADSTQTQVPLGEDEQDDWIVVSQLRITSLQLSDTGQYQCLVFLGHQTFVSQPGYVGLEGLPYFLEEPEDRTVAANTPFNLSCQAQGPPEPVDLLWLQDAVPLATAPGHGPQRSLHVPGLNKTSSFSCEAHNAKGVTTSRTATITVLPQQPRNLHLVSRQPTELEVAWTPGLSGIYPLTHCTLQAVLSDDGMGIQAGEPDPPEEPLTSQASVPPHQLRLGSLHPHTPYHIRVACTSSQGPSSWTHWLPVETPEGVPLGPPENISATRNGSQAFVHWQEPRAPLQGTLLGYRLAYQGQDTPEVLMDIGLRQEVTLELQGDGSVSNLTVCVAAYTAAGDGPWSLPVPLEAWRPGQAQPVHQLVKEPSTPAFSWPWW

T4: Human Axl-Fc chimera (R&D Systems #154-AL) (human, UniProt P30530 26-451)
T4 construct: Bought reagent; also called Axl-Fc antigen; AXL-Fc chimera antigen; Fc part of the bought chimera not given
T4 sequence: T3 sequence

B1: Ab1-ConjE (Ab1 conjugated to the ConjE PBD payload, DAR 2.2) (other)
VH: EVQLVESGGDLVKPGGSLKLSCAASGFTFSSYGMSWVRQTPDKRLEWVATISSGGSYTYYPDSVKGRFTISRDNAKNTLYLQMSSLKSEDTAMYYCARHPIYYTYDDTMDYWGQGTSVTVSS
VL: ENVLTQSPAIMAASPGEKVTMTCSASSSVSSGNFHWYQQKPGTSPKLWIYRTSNLASGVPARFSGSGSGTSYSLTISSMEAEDAATYYCQQWSGYPWTFGGGTKLEIK
modifications: ConjE PBD drug-linker on cysteine thiol(s) of the antibody, sites not stated; DAR 2.2
B2: Ab1, anti-AXL antibody comprising the murine 1H12 VH (SEQ ID NO. 1) and VL (SEQ ID NO. 4) and a constant region derived from one or more human antibodies (antibody, V domains shown)
VH: B1 VH
VL: B1 VL
notes: also called Abl; chimeric 1H12
B3: Ab2-ConjE (Ab2 conjugated to the ConjE PBD payload, DAR 2.4) (other)
VH: MGFKMESQFQVFVFVFLWLSGVDGQVQLVESGGGVVQPGRSLRLSCAASGFTFSSYGMSVRQAPGKGLEWVATISSGGSYTYYPDSVKGRFTISRDNSKNTLYLQMNSLRAEDTAVYYCARHPIYYTYDDTMDYWGQGTTVTVSS
VL: EIVLTQSPATLSLSPGERATLSCSASSSVSSGNFHWYQQKPGLAPRLLIYRTSNLASGIPDRFSGSGSGTDFTLTISRLEPEDFAVYYCQQWSGYPWTFGPGTKVDIK
modifications: ConjE PBD drug-linker on cysteine thiol(s) of the antibody, sites not stated; DAR 2.4
B4: Ab5-ConjE (Ab5 conjugated to the ConjE PBD payload, DAR 2.3) (other)
VH: EVQLVESGGGLVQPGGSLRLSCAASGFTFSSYGMSWVRQAPGKGLEWVATISSGGSYTYYPDSVKGRFTISRDNAKNSLYLQMNSLRAEDTAVYYCARHPIYYTYDDTMDYWGQGTLVTVSS
VL: B3 VL with A9G, D61A, R78S, P101G, V105L, D106E
modifications: ConjE PBD drug-linker on cysteine thiol(s) of the antibody, sites not stated; DAR 2.3
B5: Ab4, anti-AXL antibody comprising VH SEQ ID NO. 3 and VL SEQ ID NO. 5 and a constant region derived from one or more human antibodies (antibody, V domains shown)
VH: B4 VH
VL: B3 VL
B6: Ab3-ConjE (Ab3 conjugated to the ConjE PBD payload, DAR 2.2) (other)
VH: B3 VH
VL: B3 VL with A9G, D61A, R78S, P101G, V105L, D106E
modifications: ConjE PBD drug-linker on cysteine thiol(s) of the antibody, sites not stated; DAR 2.2
B7: Ab4-ConjE (Ab4 conjugated to the ConjE PBD payload, DAR 2.6) (other)
VH: B4 VH
VL: B3 VL
modifications: ConjE PBD drug-linker on cysteine thiol(s) of the antibody, sites not stated; DAR 2.6
B8: Ab5, anti-AXL antibody comprising VH SEQ ID NO. 3 and VL SEQ ID NO. 7 and a constant region derived from one or more human antibodies (antibody, V domains shown)
VH: B4 VH
VL: B3 VL with A9G, D61A, R78S, P101G, V105L, D106E

Legend:
AXL on MDA-MB-231 cells = target: T1, AXL on MDA-MB-231 cells; experiment: cell-based or functional assay
Cynomolgus monkey AXL = target: T2, Cynomolgus monkey AXL; experiment: ELISA on cynomolgus monkey AXL (coating antigen not described in the text), OD 450nm against Log10[IgG (µg/mL)] [B. Cynomolgus monkey AXL]
[1] = target: T3, Human AXL-Strep-His (produced by …); experiment: ELISA on plate-coated human AXL-Strep-His (Protocol 4), OD 450nm against Log10[IgG (µg/mL)] [A. Human Axl]
[2] = target: T4, Human Axl-Fc chimera (R&D Systems …); experiment: SPR (Biacore T200), AXL-Fc amine-coupled to CM5 chip, antibody as analyte, bivalent model
[3] = target: T3, Human AXL-Strep-His (produced by …); experiment: human AXL ELISA (Protocol 4), untreated antibody of the accelerated stability analysis, OD 450nm against Log10[IgG (µg/mL)]
[4] = target: T3, Human AXL-Strep-His (produced by …); experiment: SPR (Biacore T200), AXL-Strep-His amine-coupled to CM5 chip, antibody as analyte, heterogeneous ligand model; column head KD1; heterogeneous ligand model; AXL-Strep-His antigen
[5] = target: T3, Human AXL-Strep-His (produced by …); experiment: SPR (Biacore T200), AXL-Strep-His amine-coupled to CM5 chip, antibody as analyte, heterogeneous ligand model
[6] = target: T3, Human AXL-Strep-His (produced by …); experiment: SPR (Biacore T200), AXL-Strep-His amine-coupled to CM5 chip, antibody as analyte, bivalent model
[7] = target: T3, Human AXL-Strep-His (produced by …); experiment: SPR (Biacore T200), AXL-Strep-His amine-coupled to CM5 chip, antibody as analyte, bivalent model; column head KD1

Binder | GI50 (pg/ml), MDA-MB-231 cytotoxicity, MTS assay, 5 days (AXL on MDA-MB-231 cells) [pg/mL] | EC50 (read off the curve) (Cynomolgus monkey AXL) [ng/mL] | Kd [2] [nM] | koff [2] [s⁻¹] | kon [2] [M⁻¹ s⁻¹] | EC50 (read off the curve) [3] [ng/mL] | further results
B1 | 6.95 |  |  |  |  |  | 
B2 |  | ~20 | 4.6 | 0.000142 | 30900 | ~10 | EC50 (read off the curve) [1]: ~30 ng/mL; Kd [4]: 40.7 nM; koff [5]: 0.000533 s⁻¹; kon [5]: 13100 M⁻¹ s⁻¹
B3 | 73 |  |  |  |  |  | 
B4 | 44 |  |  |  |  |  | 
B5 |  | ~20 | 1.37 | 0.000396 | 290000 | ~20 | EC50 (read off the curve) [1]: ~30 ng/mL; koff [6]: 0.00059 s⁻¹; kon [6]: 9760 M⁻¹ s⁻¹; Kd [7]: 60.4 nM
B6 | 27.6 |  |  |  |  |  | 
B7 | 64.2 |  |  |  |  |  | 
B8 |  | ~30 | 7.69 | 0.000159 | 20600 | ~20 | koff [6]: 0.000435 s⁻¹; kon [6]: 18900 M⁻¹ s⁻¹; Kd [7]: 23 nM
